{"source": "paper PMC6754429", "about": "“Structure of full-length wild-type human phenylalanine hydroxylase by small angle X-ray scattering reveals substrate-induced conformational stability” (Scientific Reports, 2019)", "biological_target": "the molecule itself", "assay": "SEC-SAXS; Shodex KW-404 column coupled to SAXS (B21, Diamond); 12 mg/mL hPAH injected; 20 mM Hepes pH 7.0, 200 mM NaCl; 20 °C; no L-Phe (hPAH^free); molecular mass from the Porod volume", "data": [{"protein": "Recombinant full-length wild-type human phenylalanine hydroxylase (His6-hPAH) (enzyme, UniProt P00439 1-452, looked up, human phenylalanine hydroxylase, full-length wild type; The same protein was measured without L-Phe (hPAH^free) and with 1 mM L-Phe (hPAH^Phe); also called hPAH^free; hPAH^Phe; source: E. coli Top10 (pTrcHis-hPAH plasmid), purified (Ni-NTA; PD-10 into SEC buffer, then the beamline SEC column); not shown: His6 (with a 26-amino acid linker), N-terminal, kept) MSTAVLENPGLGRKLSDFGQETSYIEDNCNQNGAISLIFSLKEEVGALAKVLRLFEENDVNLTHIESRPSRLKKDEYEFFTHLDKRSLPALTNIIKILRHDIGATVHELSRDKKKDTVPWFPRTIQELDRFANQILSYGAELDADHPGFKDPVYRARRKQFADIAYNYRHGQPIPRVEYMEEEKKTWGTVFKTLKSLYKTHACYEYNHIFPLLEKYCGFHEDNIPQLEDVSQFLQTCTGFRLRPVAGLLSSRDFLGGLAFRVFHCTQYIRHGSKPMYTPEPDICHELLGHVPLFSDRSFAQFSQEIGLASLGAPDEYIEKLATIYWFTVEFGLCKQGDSIKAYGAGLLSSFGELQYCLSEKPKLLPLELEKTAIQNYTVTEFQPLYYVAESFNDAKEKVRNFAATIPRPFSVRYDPYTQRIEVLDNTQQLKILADSINSEIGILCSALQKIK", "values": [{"measurement": "stoichiometry N", "result": 4}]}]}
